Laboratory results reported in patent US20200216514A1, “Generalized Extracellular Molecule Sensor” (ETH ZURICH, priority 2019, published 2020).
One block for each molecule: values may come before it.

Legend:
WEN1.3 cells = assay: Endogenous IL-10 secretion (ELISA) in WEN1.3 hybridoma cells; format: cell-based; details: for Fold change (IL-10 concentration in supernatant): 0 ng vs. 100 ng RR120/mL, 24 h
Method: WEN1.3 cells (See Pogson M et al., Nat. Commun., 2016, 7:12535) were cultivated in DMEM (52100039, Thermo Fisher) supplemented with 10% (v/v) heat-inactivated FBS (F7524, lot BCBS0318V, Sigma-Aldrich), 1% (v/v) streptomycin/penicillin (L0022, Biowest), 10 mM HEPES buffer (Ser. No. 15/630,056, Thermo Fisher), and […] 2-mercaptoethanol (M3148, Sigma-Aldrich) in a humidified atmosphere of 5% CO2 in air at 37° C. Cells were transfected by electroporation with program CQ-104 of the 4D-Nucleofector System (Lonza) and the SF Cell Line 4D-Nucleofector X Kit L (V4XC-2024, Lonza).
For each transfection 1×10^6 cells were washed twice by centrifugation for 5 min at 90 g and then resuspended in 1 mL of Opti-MEM I Reduced Serum Medium (31985062, Thermo Fisher); after washing, the cells were resuspended in 100 μL Lonza SF buffer containing 0.5 μg sleeping beauty transposase expression plasmid (pCMV(CAT)T7-SB100) and 9.5 μg of a plasmid for stable integration and expression of JAK/STAT-GEMS (pLeo695) or MAPK-GEMS (pLeo694). After pulsing, 500 μL prewarmed culture medium was added for 10 min. Cells were transferred to 1 mL culture media in 24-well plates (142475, Thermo Fisher) and were grown for 48 h. For creating stable cell lines, cells were transferred to 3 mL culture media in 6-well plates (140675, Thermo Fisher) and were selected with 5 μg/mL puromycin (ANT-PR-1, InvivoGen) for 14 d. For experiments, cells were centrifuged for 5 min at 90 g and resuspended in culture media (with or without RR120) to give a concentration of 1×10^6 cells/mL, and then 500 μL of the cell suspension was transferred per well of a 48-well plate. IL-10 ELISAs (900-TM53, PeproTech) were performed 24 h after induction.

[1] = cited from earlier work
[2] = test system: JAK/STAT signaling through STAT3; assay: C-STAR caffeine-inducible STAT3 SEAP reporter assay in HEK-293T cells; format: cell-based, human; details: 1 μM concentration; C-STARDB1 cells; FIG. 22
Method: All cells were cultured in a humidified atmosphere containing 5% CO2 at 37° C.

[3] = target: SunTag8×-mCherry fusion protein; assay: cell-based or functional assay
[4] = test system: NFAT, STAT3 and MAPK signaling; assay: GEMS pathway crosstalk reporters (FIG. 13A-B) in HEK-293T cells; format: cell-based, human
Method: Human embryonic kidney cells (HEK-293T, American Type Culture Collection (ATCC): CRL-11268) were cultivated in Dulbecco's modified Eagle's medium (DMEM; 52100039, Thermo Fisher) supplemented with 10% (v/v) FBS (F7524, lot BCBS0318V, Sigma-Aldrich) and 1% (v/v) streptomycin/penicillin (L0022, Biowest) in a humidified atmosphere of 5% CO2 in air at 37° C. For experiments, 1.5×10^6 cells in 12 mL DMEM were seeded into 96-well plates (167008, Thermo Fisher) 24 h before transfection. The transfection mix in each well consisted of 125-130 ng of plasmid DNA mixed with 50 μL FBS and antibiotics-free DMEM and 600 ng of polyethyleneimine (24765-1, Polysciences, Inc.). The transfection mix was prepared separately, incubated for 20 min and then added to the cells for overnight transfection. […] Reporter output was measured 24 h after induction for all experiments. […]
FIGS. 5A-C; FIG. 6A; FIG. 8; FIG. 9; FIGS. 10A-B; FIGS. 11A-C; FIG. 12; FIGS. 13A-B: 600 ng of receptor plasmids (for heterodimeric receptors 300 ng of each subunit) and for STAT readout 150 ng of a STAT3 reporter plasmid (pLS13) and 25 ng of a STAT3 expression vector (pLS15); for MAPK-readout 75 ng of a TetR reporter plasmid (pMF111) and 100 ng of a TetR-Elk1 fusion expression vector (MKp37); for NFAT readout 175 ng of a NFAT reporter plasmid (pHY30) and for NF-κB readout 175 ng of a NF-κB reporter plasmid (pKR32). […]

[5] = test system: JAK/STAT signaling (STAT3 reporter); assay: GEMS STAT3-responsive SEAP reporter assay in HEK-293T cells; format: cell-based, human; details: for Fold change (SEAP reporter): 24 h induction; for Response to erythropoietin: FIG. 5B, with / without F93A modification of EpoR
Method: Human embryonic kidney cells (HEK-293T, American Type Culture Collection (ATCC): CRL-11268) were cultivated in Dulbecco's modified Eagle's medium (DMEM; 52100039, Thermo Fisher) supplemented with 10% (v/v) FBS (F7524, lot BCBS0318V, Sigma-Aldrich) and 1% (v/v) streptomycin/penicillin (L0022, Biowest) in a humidified atmosphere of 5% CO2 in air at 37° C. For experiments, 1.5×10^6 cells in 12 mL DMEM were seeded into 96-well plates (167008, Thermo Fisher) 24 h before transfection. The transfection mix in each well consisted of 125-130 ng of plasmid DNA mixed with 50 μL FBS and antibiotics-free DMEM and 600 ng of polyethyleneimine (24765-1, Polysciences, Inc.). The transfection mix was prepared separately, incubated for 20 min and then added to the cells for overnight transfection. In the morning, medium with the transfection mix was exchanged for 130 μL/well medium with different concentrations of the appropriate inducer or no inducer as a negative control. Reporter output was measured 24 h after induction for all experiments. Plasmid amounts used for transfections per set of six wells of a 96-well plate were as follows:
FIG. 3B; FIG. 4B: 5 ng for each receptor subunit or as indicated in the figure, 150 ng STAT3 reporter plasmid (pLS13), 25 ng STAT3 expression vector (pLS15) and […] (or the appropriate amount to make a total of 775 ng) of a plasmid without mammalian promoter (pDF145).
FIGS. 5A-C; FIG. 6A; FIG. 8; FIG. 9; FIGS. 10A-B; FIGS. 11A-C; FIG. 12; FIGS. 13A-B: 600 ng of receptor plasmids (for heterodimeric receptors 300 ng of each subunit) and for STAT readout 150 ng of a STAT3 reporter plasmid (pLS13) and 25 ng of a STAT3 expression vector (pLS15); for MAPK-readout 75 ng of a TetR reporter plasmid (pMF111) and 100 ng of a TetR-Elk1 fusion expression vector (MKp37); for NFAT readout 175 ng of a NFAT reporter plasmid (pHY30) and for NF-κB readout 175 ng of a NF-κB reporter plasmid (pKR32).
SEAP concentrations in cell culture supernatants were quantified in terms of absorbance increase due to hydrolysis of para-nitrophenyl phosphate (pNPP). 80 μL of heat-inactivated (30 min at 65° C., then centrifuged for 1 min, 3,220 g) supernatant was mixed in a 96-well dish with 100 μL of 2×SEAP buffer (20 mM homoarginine, 1 mM MgCl2, 21% (v/v) diethanolamine, pH 9.8) and 20 μL of substrate solution containing 20 mM pNPP (Acros Organics BVBA). Samples were measured at 405 nm with a Tecan Genios PRO multiplate reader (Tecan AG) or an EnVision 2104 multilabel reader (PerkinElmer). SEAP production in vivo was quantified with the chemiluminescence SEAP reporter gene assay (cat. no. 11779842001, Sigma-Aldrich) according to the manufacturer's instructions.

Molecule: O=S(=O)(O)c1cc(Nc2nc(Cl)nc(Nc3ccc(Nc4nc(Cl)nc(Nc5cc(S(=O)(=O)O)cc6cc(S(=O)(=O)O)c(N=Nc7ccccc7S(=O)(=O)O)c(O)c56)n4)cc3)n2)c2c(O)c(N=Nc3ccccc3S(=O)(=O)O)c(S(=O)(=O)O)cc2c1 [RR120, reactive red 120, reference compound]
Fold change (IL-10 concentration in supernatant) (WEN1.3 cells; WT WEN1.3 cells (no receptor)): 1.1 fold

Molecule: Cn1c(=O)c2c(ncn2C)n(C)c1=O [caffeine]
Half-life of caffeine in human blood [1]: approximately five

Molecule: Cn1c(=O)c2[nH]cnc2n(C)c1=O [theophylline]
Cross-activation of C-STAR by caffeine analogs [2]: modest cross-activation

Fold change of MAPK reporter (NanoLuc), 0% vs. 0.002 % (v/v) bacterial lysate (SunTag), cells co-transfected with MAPK-GEMSRR120 (Y677F), FIG. 13C [3]: 1.3 fold
Fold change of SEAP, 0 % vs. 0.002 % (v/v) bacterial lysate (SunTag), FIG. 10A [3]: 6.9 fold
Fold change of SEAP, 0 % vs. 0.02 % (v/v) bacterial lysate (SunTag), FIG. 10A [3]: 30 fold
Fold change of STAT3 reporter (SEAP), 0% vs. 0.002 % (v/v) bacterial lysate (SunTag), cells co-transfected with MAPK-GEMSRR120 (Y677F), FIG. 13C [3]: 12.9 fold
Fold change of STAT3 reporter (SEAP), no inducer vs. 100 ng RR120/mL + 0.002 % (v/v) bacterial lysate (SunTag), cells co-transfected with MAPK-GEMSRR120 (Y677F), FIG. 13C [3]: 14.9 fold
B1: JAK/STAT-GEMSSunTag (pLeo620; scFvαGCN4-EpoRm-IL-6RBm) (receptor, part only; not given: Signal peptide and scFv-EpoR linker, part only)
chain, part: DIVMTQSPSSLSASVGDRVTITCRSSTGAVTTSNYASWVQEKPGKLFKGLIGGTNNRAPGVPSRFSGSLIGDKATLTISSLQPEDFATYFCALWYSNHWVFGQGTKVELKRGGGGSGGGGSGGGGSSGGGSEVKLLESGGGLVQPGGSLKLSCAVSGFSLTDYGVNWVRQAPGRGLEWIGVIWGDGITDYNSALKDRFIISKDNGKNTVYLQMSKVRSDDTALYYCVTGLFDYWGQGTLVTVSAPSPSLPDPKFESKAALLASRGSEELLCFTQRLEDLVCFWEEAASSGMDFNYSFSYQLEGESRKSCSLHQAPTVRGSVRFWCSLPTADTSSAVPLELQVTEASGSPRYHRIIHINEVVLLDAPAGLLARRAEEGSHVVLRWLPPPGAPMTTHIRYEVDVSAGNRAGGTQRVEVLEGRTECVLSNLRGGTRYTFAVRARMAEPSFSGFWSAWSEPASLLTASDLDPLILTLSLILVLISLLLTVLALLSAAANKRDLIKKHIWPNVPDPSKSHIAQWSPHTPPRHNFNSKDQMYSDGNFTDVSVVEIEANDKKPFPEDLKSLDLFKKEKINTEGHSSGIGGSSCMSSSRPSISSSDENESSQNTSSTVQASTVVHSGYRHQVPSVQVFSRSESTQPLLDSEERPEDLQLVDHVDGGDGILPRQQYFKQNCSQHESSPDISHFERSKQVSSVNEEDFVRLKQQISDHISQSCGSGQMKMFQEVSAADAFGPGTEGQVERFETVGMEAATDEGMPKSYLPQTVRQGGYMPQ

B2: JAK/STAT-GEMSRR120: PSV40-VHHA52-EpoRm-IL-6RBm-pA; optimized chimeric receptor (GEMS device) targeting RR120, JAK/STAT signaling (protein)
chain: VQLQESGGGLVQAGDSLKLSCEASGDSIGTYVIGWFRQAPGKERIYLATIGRNLVGPSDFYTRYADSVKGRFAVSRDNAKNTVNLQMNSLKPEDTAVYYCAAKTTTWGGNDPNNWNYWGQGTQVTVSGEFAPSPSLPDPKFESKAALLASRGSEELLCFTQRLEDLVCFWEEAASSGMDFNYSFSYQLEGESRKSCSLHQAPTVRGSVRFWCSLPTADTSSAVPLELQVTEASGSPRYHRIIHINEVVLLDAPAGLLARRAEEGSHVVLRWLPPPGAPMTTHIRYEVDVSAGNRAGGTQRVEVLEGRTECVLSNLRGGTRYTFAVRARMAEPSFSGFWSAWSEPASLLTASDLDPLILTLSLILVLISLLLTVLALLSAAANKRDLIKKHIWPNVPDPSKSHIAQWSPHTPPRHNFNSKDQMYSDGNFTDVSVVEIEANDKKPFPEDLKSLDLFKKEKINTEGHSSGIGGSSCMSSSRPSISSSDENESSQNTSSTVQASTVVHSGYRHQVPSVQVFSRSESTQPLLDSEERPEDLQLVDHVDGGDGILPRQQYFKQNCSQHESSPDISHFERSKQVSSVNEEDFVRLKQQISDHISQSCGSGQMKMFQEVSAADAFGPGTEGQVERFETVGMEAATDEGMPKSYLPQTVRQGGYMPQ
Crosstalk to other signaling pathways [4]: cancelled the interference with MAPK signaling
Fold change (SEAP reporter) ([5]; 0 ng vs. 1 ng RR120/mL): 5.4 fold
Fold change (SEAP reporter) ([5]; 0 ng vs. 100 ng RR120/mL): 45 fold
Response to erythropoietin [5]: induced with RR120 but not with erythropoietin
Ratio of induced versus noninduced SEAP secretion (signal-to-noise ratio) ([5]; RR120 as inducer, FIG. 5C): over 40 fold
IL-10 secretion upon GEMS activation by RR120 (WEN1.3 cells; FIG. 14): substantially increased IL-10 secretion
Fold change (IL-10 concentration in supernatant) (WEN1.3 cells; stable polyclonal WEN1.3 cell line expressing the receptor): 1.5 fold

B3: pLeo618: PSV40-VHHA52-EpoR3A-IL-6RBm-pA; receptor with Y759A, without F93A modification (protein)
chain: VQLQESGGGLVQAGDSLKLSCEASGDSIGTYVIGWFRQAPGKERIYLATIGRNLVGPSDFYTRYADSVKGRFAVSRDNAKNTVNLQMNSLKPEDTAVYYCAAKTTTWGGNDPNNWNYWGQGTQVTVSGEFAPSPSLPDPKFESKAALLASRGSEELLCFTQRLEDLVCFWEEAASSGMDFNYSFSYQLEGESRKSCSLHQAPTVRGSVRFWCSLPTADTSSFVPLELQVTEASGSPRYHRIIHINEVVLLDAPAGLLARRAEEGSHVVLRWLPPPGAPMTTHIRYEVDVSAGNRAGGTQRVEVLEGRTECVLSNLRGGTRYTFAVRARMAEPSFSGFWSAWSEPASLLTASDLDPLILTLSLILVLISLLLTVLALLSAAANKRDLIKKHIWPNVPDPSKSHIAQWSPHTPPRHNFNSKDQMYSDGNFTDVSVVEIEANDKKPFPEDLKSLDLFKKEKINTEGHSSGIGGSSCMSSSRPSISSSDENESSQNTSSTVQASTVVHSGYRHQVPSVQVFSRSESTQPLLDSEERPEDLQLVDHVDGGDGILPRQQYFKQNCSQHESSPDISHFERSKQVSSVNEEDFVRLKQQISDHISQSCGSGQMKMFQEVSAADAFGPGTEGQVERFETVGMEAATDEGMPKSYLPQTVRQGGYMPQ
Response to erythropoietin [5]: respond strongly to erythropoietin
